The values that follow come from paper PMC11341566 (Nature Communications, 2024).

The target of experiment [1] is CP-CNDS, fluorescein-labelled (mixture of DCP1 and DCP2, mass ratio 2:3). In words: fluorescence polarisation.
For the next experiment, the target named is T1, lipase (UniProt P16233 17-465).
T1 sequence (looked up): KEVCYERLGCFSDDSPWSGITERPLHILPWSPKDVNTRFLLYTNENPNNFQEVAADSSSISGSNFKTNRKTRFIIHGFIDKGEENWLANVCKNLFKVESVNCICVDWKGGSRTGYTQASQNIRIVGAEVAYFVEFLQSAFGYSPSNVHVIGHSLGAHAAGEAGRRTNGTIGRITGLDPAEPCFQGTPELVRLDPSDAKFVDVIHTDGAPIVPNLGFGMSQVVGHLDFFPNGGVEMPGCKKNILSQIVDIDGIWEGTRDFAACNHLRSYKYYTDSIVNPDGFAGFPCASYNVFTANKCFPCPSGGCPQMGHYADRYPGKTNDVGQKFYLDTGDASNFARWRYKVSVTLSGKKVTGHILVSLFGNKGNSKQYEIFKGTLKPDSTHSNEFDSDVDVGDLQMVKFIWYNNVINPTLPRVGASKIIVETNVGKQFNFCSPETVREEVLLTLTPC

The target of a further experiment is T2, trypsin (UniProt P35030 81-304).
T2 sequence (looked up): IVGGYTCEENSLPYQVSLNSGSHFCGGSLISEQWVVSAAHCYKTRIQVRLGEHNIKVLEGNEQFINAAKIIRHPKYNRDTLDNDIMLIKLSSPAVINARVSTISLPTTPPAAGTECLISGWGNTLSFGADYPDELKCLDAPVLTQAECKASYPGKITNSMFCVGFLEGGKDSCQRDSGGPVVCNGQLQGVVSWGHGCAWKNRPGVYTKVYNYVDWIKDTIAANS

For orientation: Kd means the concentration at which binding is half-saturated.

Square brackets hold non-standard residues; d marks the D form.

Molecule chymotrypsin (enzyme) registered a Kd with Ac-(rada)4-NH2 of 0.227 µM.

B1: lipase (enzyme)
chain: KEVCYERLGCFSDDSPWSGITERPLHILPWSPKDVNTRFLLYTNENPNNFQEVAADSSSISGSNFKTNRKTRFIIHGFIDKGEENWLANVCKNLFKVESVNCICVDWKGGSRTGYTQASQNIRIVGAEVAYFVEFLQSAFGYSPSNVHVIGHSLGAHAAGEAGRRTNGTIGRITGLDPAEPCFQGTPELVRLDPSDAKFVDVIHTDGAPIVPNLGFGMSQVVGHLDFFPNGGVEMPGCKKNILSQIVDIDGIWEGTRDFAACNHLRSYKYYTDSIVNPDGFAGFPCASYNVFTANKCFPCPSGGCPQMGHYADRYPGKTNDVGQKFYLDTGDASNFARWRYKVSVTLSGKKVTGHILVSLFGNKGNSKQYEIFKGTLKPDSTHSNEFDSDVDVGDLQMVKFIWYNNVINPTLPRVGASKIIVETNVGKQFNFCSPETVREEVLLTLTPC
As for B1, the Kd in experiment [1] was 0.251 µM.

B2: Ac-(rada)4-NH2 (peptide)
peptide: Ac-[dR][dA][dD][dA][dR][dA][dD][dA][dR][dA][dD][dA][dR][dA][dD][dA]-NH2
As to B2, the Kd with lipase is around 0.452 µM; with trypsin it was around 0.342 µM.

B3: trypsin (enzyme)
chain: IVGGYTCEENSLPYQVSLNSGSHFCGGSLISEQWVVSAAHCYKTRIQVRLGEHNIKVLEGNEQFINAAKIIRHPKYNRDTLDNDIMLIKLSSPAVINARVSTISLPTTPPAAGTECLISGWGNTLSFGADYPDELKCLDAPVLTQAECKASYPGKITNSMFCVGFLEGGKDSCQRDSGGPVVCNGQLQGVVSWGHGCAWKNRPGVYTKVYNYVDWIKDTIAANS
As for B3, the Kd in experiment [1] turned out to be 0.102 µM.
